The values below come from patent publication US20210403538A1.

Numbering of substitutions follows the chain as printed.

To fix the notation:
B1: EBOV-442 (antibody, V domains shown)
VH: EVQLVESGGGLVKPGGSLRLSCTGSGGTGFTFKYAGMSWVRQAPGKGPEWIGRIKSRIDGGTTDYAAPVKDRFIVSRDDSRNTLYLQMNSLKTEDTAVYYCATGSGKGPSASFGESYYYYDFINVWGKGTTVTVSS
VL: ESVLTQSPGTLSLSPGERATLSCRASQSISRKYLAWYQQKPGQAPRLLIYGSSSRATGIPDRFSGSGSGTDFTLTISRLEPEDFAVYYCHQYESSPWTFGQGTKVEIK
B2: EBOV-511 (antibody, V domains shown)
VH: QLQLQESGPGLVKPSETLSLSCTVSGDSISANNYFWGWIRQPPGKELEWIGSIHNSGSTYYNPSLKSRVTTSVDTSRTQFSLKLHSVTAADAAIYYCARHLAPISGVIFIPSFFDSWGQGTLVTVSS
VL: EIVMTQSPATLSVSPGERATLSCRASQSVSSNLAWYQQRPGQAPRLLIFDASTRATGVPARFSGSGSGTEFTLTISSLQSEDFALYYCQQYNDWPPRLTFGGGTKVEIK
B3: EBOV-434 (antibody, V domains shown)
VH: QVQLVQSGAEVKKPGASVKVSCKASGYTFTGYYMFWVRQAPGQGLEWMGWINPNSGGTNYTQKFQGRVTMTRDTSISTAYMELSRLKSDDTAVYYCARDSGELLFVGSDVWGQGTLVTVSS
VL: DIQMTQSPSSVSASVGDRVTITCRASLDISYWLAWYQQKPGKAPKLLIYAASNLQSGVPSRFSGSGSGTDFTLTISSLQPEDFATYYCQQANSFPQTFGQGTRLELK
B4: EBOV-507 (antibody, V domains shown)
VH: QVQLVQSGAEVKKPGASVKVSCKASGYTFNNYLINWVRQAPGQGLEWMGWINPHSGGTEYAQQFQGRLTVTRDTSIRTAYMELRGLTFDDSAMYYCWIWFRSETFDFWGQGTLVTVSS
VL: DIQMTQSPSAMSASVGDRVTITCRASQDISNYLAWFQQKPGQGPKRLIFEASILHSGVPSRFSGSGSGTEFTLTISSLQPEDFATYYCLQHNTYLTFGQGTKVEIK
B5: EBOV-524 (antibody, V domains shown)
VH: QVQLVESGGGVVQPGGSLRLSCAASGFKFSTYGMNWVRQVPGQGLEWVSFVRHDGSNKYYSDSVKGRFTIFRDNSNNKLYLQMNNLRAEDTAVYYCAKDVLDCSRADCFIYYYYMDVWGKGTLVTVSS
VL: DIQMTQSPSSVSASPGDRVTITCRASQTISGWLAWYQQKPGKAPKLLIYDVSTLQSGVPSRFSGGGSGTEFTFTISSLQPEDYATYFCQQGNRIPLSFGGGTRVEIK
B6: EBOV-508 (antibody, V domains shown)
VH: QVQLVQSGAEVKKPGASVKVSCKASGYTFINYYMHWVRQAPGQGLEWMGTINPSTGRPNYAQKFQGRVTLTRDTSTTTVDMELSSLTSEDTAVYYCVSFQFYFDYWGQGTLVTVSS
VL: DIQMTQSPSAMSPSVGDRVTITCRASQGINNYLAWFQQKPGKVPKRLIYAASNLQSGVPSRFSGSGSGTEFTLTISSLQPEDFATYYCLQHNSYPWTFGQGTKVEIN
B7: EBOV-451 (antibody, V domains shown)
VH: EVQLVESGGSVVRPGGSLRLSCAASGFKFDEYGMSWVRQAPGKGLEWVSGITWNGGVRTYADSVKGRFTISRDNAKNSVYLQMKSLRGEDTALYYCVSWGERYDAYFDYWGQGTLVTVSS
VL: EIVLTQSPGSLSLSPGERATLSCRASQSVNSRYFAWYQQRPGQAPRLLIYATSTRATGIPDRFSGSGSGTDFTLTISRLEPEDFAVYSCQQYGSSPYTFGQGTKLEIK
B8: EBOV-520 (antibody, V domains shown)
VH: QVQLQESGPGLGKPSETLSLSCTVSGASIRGYFWNWIRQPPGKGLEWIGYIHSTGSTNYNPSLKSRVTISVDTSKNQVSLNVNSVTAADTAVYFCARGAWNVATVYYYYGMDVWGQGTLVTVSS
VL: B7 VL with S10T, N30S, R32S, R40K, Y50S, A51G, T57P, S88F, S94N, P96L
B9: EBOV-518 (antibody, V domains shown)
VH: QVTLKESGPTLVKPTQTLTLTCTFSGFSMNSSGMSVTWIRQPPGKALECLALIYWDDDKWYGPSLETRVTITKDASKNQVVLTMTNMDPVDTATYYCAHSGGLVAGAFDYWGQGTLVTVSS
VL: EIVMTQSPDSLTVSLGERATINCRSSQSVLYRVNSKNYLAWYQQKAGQTPKLIINWASTRESGVPDRFSGSGSGTDFTLTISSLQAEDVAVYYCQQYYNSPRTFGQGTKVEIK
B10: EBOV-514 (antibody, V domains shown)
VH: QVQLQESGPGLVKPSQTLSLTCTVSGASITGGDDFWSWIRQPPGKGLEWIGFIHHSGNAYYRSSLKSRVHFSVDTSKDQFSLTLTSVTAADTAVYYCARDKAQAYGLLYHYHTDVWGKGTLVTVSS
VL: EIVMTQSPATLSVSPGERATLSCRASQSVSSNLAWYQQKPGLAPRLLIYGAFTRATDIPDRFSGSGSGTEFTLTISSLQSEDFAIYYCQYYNDWPPGYTFGQGTKLEIK
B11: EBOV-517 (antibody, V domains shown)
VH: EVQLVESGGGLVQPGGSLRLSCGASGFTFNKYWMTWVRQAPGKGLEWVANINQDGSEKYFAESVKGRFTVSRDNAKNSLYLQMNSLRAEDTAVYYCARGASIEVEILYYYHMDVWGKGTLVTVSS
VL: EIVMTQSPATLSVSPGERATLSCRASQSITTHLAWYQQKPGQAPRLLIYDTSTRATGIPARFSGSGSGTEFTLTISNMQSEDFAVYYCQQYHTWPPLTFGGGTKVEIK
B12: EBOV-510 (antibody, V domains shown)
VH: QVQLQESGPGLVKPSQTLSLTCTVSGGSITSGDYYLTWVRQPPGKGLEWIGHIYYSGSTSYNPSLKSRLLMSVDTSKNQFSLRLSSVTAADTAVYYCARESDGDPSRLYFYFAMDVWGQGTLVTVSS
VL: QSALTQPASVSGSPGQSITISCTGTSSDVGGSYFVSWYQHHPGKAPKLMISEVSNRPSGVSNRFSGSKSGNTASLTISGLRTEDEADYYCSSYTSNTTLVFGGETKVTVL
B13: EBOV-446 (antibody, V domains shown)
VH: QVQLVQSGAEVKKPGASVKVSCKASGYTFTDYYIYWVRQAPGQGLEWMGWLNPNSGGTDYAQKFQGRVTMTRDTSIRTAYMDLSRLRSDDTAVYYCARGRRHGAYVDWGQGTLVTVSS
VL: DIQLTQSPSFLSASVGDRVTITCRASQGISTYLAWYQQKPGKAPNLLIYDTSTLQSGVPSRFSGSASGTEFTLTISSLQPEDFATYYCQQLNFYLGGLTFGQGTRLEIK

This test deals with EBOV GP on recombinant EBOV-eGFP virus (Zaire ebolavirus (EBOV)). Put plainly: cell-based or functional assay.
As to B1, the Neutralization, IC50 ng/mL was found to be 467 ng/mL. The same measure for B2: more than 200000 ng/mL; for B3: more than 200000 ng/mL; for B4: more than 200000 ng/mL. Take B5: the Neutralization, IC50 ng/mL is more than 200000 ng/mL.

Regarding B6, the Neutralization, IC50 ng/mL is more than 200000 ng/mL.

Consider B7, for which the Neutralization, IC50 ng/mL is more than 200000 ng/mL. The same measure for B8: 5740 ng/mL. The figure for B9 is more than 200000 ng/mL.

B10: the Neutralization, IC50 ng/mL was more than 200000 ng/mL. Regarding B11, the Neutralization, IC50 ng/mL is more than 200000 ng/mL.

B12: the Neutralization, IC50 ng/mL was more than 200000 ng/mL. The same measure for B13: more than 200000 ng/mL.
